Data from PMC8808280 (Nature, 2021).

Target: T1, Receptor-associated protein (RAP) (human, UniProt P30533 35-353)
T1 sequence (looked up): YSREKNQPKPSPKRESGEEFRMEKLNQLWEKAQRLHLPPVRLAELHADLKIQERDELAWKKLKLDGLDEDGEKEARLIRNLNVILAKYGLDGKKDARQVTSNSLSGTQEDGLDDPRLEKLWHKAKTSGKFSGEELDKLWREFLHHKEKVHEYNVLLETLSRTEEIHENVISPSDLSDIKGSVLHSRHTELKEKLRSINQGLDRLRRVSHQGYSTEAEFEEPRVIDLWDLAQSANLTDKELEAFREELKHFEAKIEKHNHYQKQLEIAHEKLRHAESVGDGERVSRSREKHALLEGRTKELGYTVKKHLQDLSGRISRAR
Assay: BLI

B1: ApoER2 isoform 1 LBD-Fc fusion protein (Fc fusion)
chain: not shown
- binding result: binds
